Test results as given in publication PMC3130265.

Molecular target: GST-Sam68(1-277) (UniProt Q60749 1-277)
Experiment: EMSA

Chain of GST-Sam68(1-277) (Q60749 1-277): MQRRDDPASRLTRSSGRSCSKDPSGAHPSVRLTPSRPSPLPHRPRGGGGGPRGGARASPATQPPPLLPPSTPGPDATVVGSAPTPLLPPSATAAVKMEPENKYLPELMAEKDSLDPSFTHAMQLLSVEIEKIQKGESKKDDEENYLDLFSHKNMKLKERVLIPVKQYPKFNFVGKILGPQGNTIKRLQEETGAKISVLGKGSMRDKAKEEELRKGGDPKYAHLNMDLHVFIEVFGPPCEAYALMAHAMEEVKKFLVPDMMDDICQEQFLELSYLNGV

UAUUUAAUUCAUAAAUUUUGUUUUGUUUCUAGGGA (ssRNA) [Sgce WT probe (intron 7/exon 8 boundary)]
binding result: binds
